Data taken from patent US20040191860A1.

Tests used:
[1] = target: r150, 150 kDa GPI-anchored TGF-β1 binding protein (membrane anchored form) (human) (UniProt Q6YHK3); test: competition of unlabeled TGF-β3 with 125I-TGF-β1 on keratinocytes, affinity cross-link labeling, densitometry
[2] = target: Transforming growth factor-β1 (UniProt P01137); test: 125I-TGF-β1 (50 pM) binding to MvLu1 cells with concentrated supernatant of PIPLC treated HaCaT cells, dose 2
[3] = target: Transforming growth factor-β1 (UniProt P01137); test: 125I-TGF-β1 (50 pM) binding to MvLu1 cells with concentrated supernatant of PIPLC treated HaCaT cells, dose 1 (one T-25 flask, about 1x10^6 cells)
[4] = target: Transforming growth factor-β1 (UniProt P01137); test: 125I-TGF-β1 (50 pM) binding to MvLu1 cells with concentrated supernatant of untreated HaCaT cells (r150 released by an endogenous phospholipase), dose 1
[5] = target: Transforming growth factor-β1 (UniProt P01137); test: 125I-TGF-β1 (50 pM) binding to MvLu1 cells with concentrated supernatant of untreated HaCaT cells (r150 released by an endogenous phospholipase), dose 2

Chain of Transforming growth factor-β1 (P01137 279-390 limits assumed): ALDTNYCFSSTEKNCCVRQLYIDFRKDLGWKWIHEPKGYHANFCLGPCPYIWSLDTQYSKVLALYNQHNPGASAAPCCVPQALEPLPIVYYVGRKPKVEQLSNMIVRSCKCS
Chain of r150, 150 kDa GPI-anchored TGF-β1 binding protein (membrane anchored form) (human) (Q6YHK3 other isoform, or with tags, fused parts or gaps limits assumed): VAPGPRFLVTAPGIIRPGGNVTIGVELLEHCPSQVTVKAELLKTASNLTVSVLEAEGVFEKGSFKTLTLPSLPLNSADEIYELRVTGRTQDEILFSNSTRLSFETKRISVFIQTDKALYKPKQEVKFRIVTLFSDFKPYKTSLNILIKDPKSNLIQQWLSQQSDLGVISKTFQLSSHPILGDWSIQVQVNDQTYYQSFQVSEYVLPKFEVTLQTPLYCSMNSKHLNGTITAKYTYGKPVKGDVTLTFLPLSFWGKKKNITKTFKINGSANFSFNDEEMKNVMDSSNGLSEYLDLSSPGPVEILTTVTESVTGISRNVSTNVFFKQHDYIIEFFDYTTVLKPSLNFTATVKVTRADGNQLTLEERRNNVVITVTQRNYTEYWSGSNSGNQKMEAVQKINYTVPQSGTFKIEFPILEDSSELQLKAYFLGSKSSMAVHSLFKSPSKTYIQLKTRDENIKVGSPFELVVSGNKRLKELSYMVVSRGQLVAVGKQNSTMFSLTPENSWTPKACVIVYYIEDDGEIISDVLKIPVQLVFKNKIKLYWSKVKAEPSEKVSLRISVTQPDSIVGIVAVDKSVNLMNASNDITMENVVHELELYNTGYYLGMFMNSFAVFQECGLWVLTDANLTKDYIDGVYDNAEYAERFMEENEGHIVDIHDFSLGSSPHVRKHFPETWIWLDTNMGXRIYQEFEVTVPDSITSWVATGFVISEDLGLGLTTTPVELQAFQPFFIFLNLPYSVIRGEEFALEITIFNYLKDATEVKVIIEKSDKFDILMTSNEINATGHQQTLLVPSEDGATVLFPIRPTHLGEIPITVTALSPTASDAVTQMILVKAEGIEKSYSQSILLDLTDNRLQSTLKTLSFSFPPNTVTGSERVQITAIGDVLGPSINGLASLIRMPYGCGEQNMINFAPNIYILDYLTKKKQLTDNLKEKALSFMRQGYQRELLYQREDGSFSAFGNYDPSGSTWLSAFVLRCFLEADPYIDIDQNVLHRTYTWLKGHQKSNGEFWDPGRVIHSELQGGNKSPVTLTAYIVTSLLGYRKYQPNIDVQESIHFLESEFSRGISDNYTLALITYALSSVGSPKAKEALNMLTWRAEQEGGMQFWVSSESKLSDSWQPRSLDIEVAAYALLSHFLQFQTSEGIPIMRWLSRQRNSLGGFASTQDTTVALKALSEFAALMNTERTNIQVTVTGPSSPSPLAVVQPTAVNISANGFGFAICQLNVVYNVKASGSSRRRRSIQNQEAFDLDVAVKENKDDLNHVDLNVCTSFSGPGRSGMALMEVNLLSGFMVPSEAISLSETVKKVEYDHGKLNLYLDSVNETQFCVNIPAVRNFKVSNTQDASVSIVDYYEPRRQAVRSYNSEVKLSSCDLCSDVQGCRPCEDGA

Substance | ratio of the concentration for half-maximal inhibition of 125I-TGF-β1 binding, r150 against the types I or II receptors [1] [fold] | percent inhibition of 125I-TGF-β1 binding to MvLu1 cells [2] [%] | percent inhibition of 125I-TGF-β1 binding to MvLu1 cells [3] [%] | percent inhibition of 125I-TGF-β1 binding to MvLu1 cells [4] [%] | percent inhibition of 125I-TGF-β1 binding to MvLu1 cells [5] [%]
Transforming growth factor-β3 (from UniProt P10600 301-412) (ligand) | 6 |  |  |  | 
soluble r150 (released from the cell surface by PIPLC or by an endogenous phospholipase C) (from UniProt Q6YHK3 22-1420) (receptor) |  | 50 | 33 | 15 | 31
